For 10 molecules, IC50 results are on record in patent publication US20140348862.

Bounds are passed on as bounds.

The chains are these.
B1: PRAME 499-507 (peptide)
chain: EPILCPCFM
B2: PRAME 246-255 (peptide)
chain: LPTLAKFSPY
B3: PRAME 48-57 (peptide)
chain: LPRELFPPLF
B4: PRAME 253-262 (peptide)
chain: SPYLGQMINL
B5: PRAME 186-194 (peptide)
chain: GACDELFSY
B6: PRAME 53-61 (peptide)
chain: FPPLFMAAF
B7: PRAME 170-178 (peptide)
chain: QPFIPVEVL
B8: PRAME 48-56 (peptide)
chain: LPRELFPPL
B9: PRAME 173-181 (peptide)
chain: IPVEVLVDL
B10: PRAME 113-122 (peptide)
chain: RPRRWKLQVL

The first test concerns the target HLA-B*3501 (human), P01889. Description: competition, FACS 4C. The following applies: modification not given.
A word on the IC50: it is the concentration that gives 50% inhibition. A low value points to greater potency in that assay. B1 yielded an IC50 of less than 1000 nM.

In another test the target is HLA-B*3501 (human), P01889. Description: competition, FACS 4C. The following applies: modification not given. This is another data set of the same source.
In turn, B2 yielded an IC50 of 110 nM.

For another test, the target named is HLA-B*3501 (human), P01889. Briefly: competition, FACS 4C. Particulars: modification not given. This is another data set of the same source.
With B3, the IC50 turned out to be 1580 nM. Same read-out and setting: as for B4, the figure is 1980 nM; as for B5, 2600 nM. Still for that read-out and setting: as for B6, the figure is less than 1000 nM. Still for that read-out and setting: as for B7, the figure is 2830 nM; as for B8, less than 1000 nM. B1 came in with an IC50 of 320 nM. The same measure, in the same setting: to B2 belongs less than 1000 nM; to B9, 2240 nM.

Another test has as its target HLA-B7 (human), P01889. Briefly: competition, FACS 4C. The following applies: modification not given.
Molecule B10 showed an IC50 of less than 1000 nM.
